From patent publication US20080152587A1 (Amgen, published 2008)

T1: mouse uPAR on the surface of NCTC L929 cells (mouse, UniProt P35456 24-298)
T1 construct: whole, on cells; also called cell surface mouse uPAR
T1 sequence (looked up): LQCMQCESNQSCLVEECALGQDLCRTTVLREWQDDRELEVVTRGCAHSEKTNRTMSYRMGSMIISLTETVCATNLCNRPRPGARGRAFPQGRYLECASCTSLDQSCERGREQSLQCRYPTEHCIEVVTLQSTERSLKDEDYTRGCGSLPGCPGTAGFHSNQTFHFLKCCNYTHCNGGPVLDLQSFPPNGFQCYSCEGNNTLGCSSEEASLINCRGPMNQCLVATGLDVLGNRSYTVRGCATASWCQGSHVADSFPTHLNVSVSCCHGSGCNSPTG

T2: human Ly6e with a myc tag, expressed in HEK293T cells (human, UniProt Q16553 21-101)
T2 construct: whole, on cells; not shown: myc tag fused on the molecule
T2 sequence (looked up): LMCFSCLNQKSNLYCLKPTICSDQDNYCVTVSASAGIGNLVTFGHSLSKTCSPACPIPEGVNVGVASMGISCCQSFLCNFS

T3: murine uPAR (form not stated) (mouse, UniProt P35456 24-297, limits assumed)
T3 construct: also called mouse uPAR
T3 sequence (looked up): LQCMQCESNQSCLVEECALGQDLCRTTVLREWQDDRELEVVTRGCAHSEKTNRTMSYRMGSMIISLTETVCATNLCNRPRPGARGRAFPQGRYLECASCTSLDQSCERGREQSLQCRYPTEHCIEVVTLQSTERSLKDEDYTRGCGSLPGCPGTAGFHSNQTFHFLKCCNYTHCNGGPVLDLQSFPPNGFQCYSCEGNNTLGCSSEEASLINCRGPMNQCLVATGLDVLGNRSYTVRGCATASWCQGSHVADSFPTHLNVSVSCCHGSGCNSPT


Experiments:
[1] = biological target: T4, human urokinase-type plasminogen activator receptor (uPAR, CD87), cell-bound (human, UniProt Q03405 23-305); assay: FACS, B300.19 cells expressing human uPAR, anti-human gamma Cy5
T4 construct: whole, on cells; On B300.19 or L929 transfectants (full length cDNA), or native on U937 and PC-3 cells

[2] = biological target: T1, mouse uPAR on the surface of NCTC L929 …; assay: FACS, NCTC L929 mouse cells
Description: (§1) To make the mouse cross-reactivity results conclusive, direct binding of the mAbs to cell-bound mouse uPAR was measured using FACS analysis. The mouse cell line derived from the connective tissue, NCTC L929, was employed for FACS analysis. The harvested cells were resuspended at 50,000 cells/well using FACS buffer into a V-bottom plate which was put on ice. […] After washing, Cy5-labeled goat anti-human IgG Fc at 5 μg/ml and 7AAD at 5 μg/ml was added. The mixtures were incubated for 15 min on ice, washed and resuspended in cold FACS buffer for FACS analysis.

[3] = biological target: T4, human urokinase-type plasminogen …; assay: cell-based or functional assay
[4] = biological target: T4, human urokinase-type plasminogen …; assay: FACS competition, FITC-tc-uPA on L929 cells expressing human uPAR, supernatant 1:2
Excerpt: (§2) Briefly, murine fibroblast L929 cells (ATCC) were transfected to express human uPAR.

[5] = biological target: T5, soluble recombinant human uPAR/His6 (R&D Systems, Cat. # 807-UK-100) (human, UniProt Q03405 23-303); assay: low resolution Biacore
T5 construct: range 1-303; Bought protein; also called soluble uPAR; hu-uPAR
Description: (§3) A high-density goat anti-human antibody surface over a CM5 Biacore™ chip was prepared using routine amine coupling. […] Each mAb was captured on a separate flow cell using a 30-second contact time at 10 μL/min followed by a 5-minute wash at a 100 μL/min flow rate for stabilization of the mAb baseline. […] All antigen samples were prepared in the running buffer.

[6] = biological target: T5, soluble recombinant human uPAR/His6 …; assay: low resolution Biacore, mAb captured by goat anti-human, hu-uPAR 312 nM;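 further: surface plasmon resonance on a CM5 chip with goat anti-human antibody surface made by amine coupling, each mAb from supernatant captured per flow cell, kinetics fitted including mass transport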
Description: as §3
A mass transport coefficient was used in fitting the data.

[7] = biological target: T1, mouse uPAR on the surface of NCTC L929 …; assay: FACS, NCTC L929 mouse cells, mAb 6.25 µg/ml
Description: as §1

[8] = biological target: T2, human Ly6e with a myc tag, expressed in …; assay: FACS, HEK293T cells expressing Ly6e, supernatant 1:2
Description: The reactivity of the antibodies to the HEK293T transfected to express Ly6e was determined by FACS analysis, using 1:2 hybridoma supernatants, and probed with goat anti-human γ chain conjugated with Cy5 (2.5 mg/ml, Jackson Immune Research). Binding of an anti-myc antibody (10 μg/ml, Invitrogen) to the transfectants served as a positive control, and binding of this antibody to the (Ly6e negative) parental cells served as the negative control.

[9] = biological target: T5, soluble recombinant human uPAR/His6 …; assay: limited antigen ELISA, uPAR coat 20 ng/mL, sample 1:25
Description: (§4) ELISA plates were coated with a lower amount ofuPAR in comparison with the High Antigen Quantitation assay described below (320, 160, 80, 40 and 20 ng/mL). Samples containing one concentration of antibody (Ab) (1:25 dilution) were incubated overnight to allow Ab binding to approach equilibrium.

[10] = biological target: T3, murine uPAR (form not stated); assay: summary column Murine X-reactivity
[11] = biological target: T6, cynomolgus monkey uPAR, cell-bound (cynomolgus monkey, UniProt Q9GK78 23-305); assay: FACS, GeoMean; cynomolgus uPAR expressed on 293T cells; antibody concentration not given
T6 construct: whole, on cells; also called cyno-uPAR

[12] = biological target: T5, soluble recombinant human uPAR/His6 …; assay: limited antigen ELISA, uPAR coat 80 ng/mL, sample 1:25
Description: as §4

[13] = biological target: T4, human urokinase-type plasminogen …; assay: FACS competition with FITC-tc-uPA, line material
Excerpt: as §2

[14] = biological target: T4, human urokinase-type plasminogen …; assay: cell-based or functional assay; remark: listed apart in the source
[15] = biological target: T4, human urokinase-type plasminogen …; assay: FACS, U937 cells, mAb 5 µg/ml on ice, alexa647 goat anti-human F(ab), not stripped
Description: A cell suspension containing 100,000 cells was pipetted into each well of a V-bottom plates in duplicate. Two V-bottom plates were prepared, one to be kept at 37° C. during internalization with antibody complex, and the other to be incubated at 4° C. Each of the eight uPAR mAbs was incubated with U937 cells at 5 μg/ml on ice for 15 min. Incubation on ice was necessary to prevent internalization of the primary mAbs. The cells were then washed with cold FACS buffer. Cells were subsequently incubated on ice in 100 μl of 5 μg/ml alexa647-labelled goat anti-humanF(ab) (Invitrogen catalogue number A21249) in cold FACS buffer for 15 min. This allowed the goat FAB bind to the bound uPAR mAbs without permitting any internalization. After a 15 minute incubation on ice, one plate was kept on ice, while the other plate was incubated at 37° C. for 1 hour.
Following the 1 hr incubation with the mAb-FAB complex, the cells were washed twice with cold 5% FACS buffer, and 200 μl of Tris(2-carboxyethyl)phosphine HCl (TCEP) was added to each well as a stripping agent. The plates were both incubated with TCEP on ice for 1 hour, followed by washing and resuspending with FACS buffer. 4 μl of 7-Amino-Actinomycin D (7AAD) was added to each well, followed by 10 min incubation on ice before FACS analysis was conducted.

T6 sequence (Q9GK78 23-305): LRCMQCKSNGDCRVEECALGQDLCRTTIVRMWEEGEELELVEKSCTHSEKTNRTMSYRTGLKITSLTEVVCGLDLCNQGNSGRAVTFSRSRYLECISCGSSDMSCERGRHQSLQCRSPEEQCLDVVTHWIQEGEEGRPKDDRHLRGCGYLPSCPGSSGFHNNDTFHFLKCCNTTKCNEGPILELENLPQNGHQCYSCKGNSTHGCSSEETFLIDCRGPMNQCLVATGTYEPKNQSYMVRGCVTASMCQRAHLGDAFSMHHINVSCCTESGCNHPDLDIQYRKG
T5 sequence (Q03405 other isoform, or with tags, fused parts or gaps limits assumed, form in doubt): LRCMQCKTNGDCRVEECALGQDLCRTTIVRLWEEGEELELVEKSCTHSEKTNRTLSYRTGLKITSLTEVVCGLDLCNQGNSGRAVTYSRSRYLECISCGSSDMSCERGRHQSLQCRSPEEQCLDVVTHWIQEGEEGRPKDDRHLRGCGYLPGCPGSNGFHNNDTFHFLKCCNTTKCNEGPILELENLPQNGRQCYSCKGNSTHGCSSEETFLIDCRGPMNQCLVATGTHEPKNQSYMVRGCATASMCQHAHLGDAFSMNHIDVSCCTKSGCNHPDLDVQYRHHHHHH
T4 sequence (Q03405 23-305): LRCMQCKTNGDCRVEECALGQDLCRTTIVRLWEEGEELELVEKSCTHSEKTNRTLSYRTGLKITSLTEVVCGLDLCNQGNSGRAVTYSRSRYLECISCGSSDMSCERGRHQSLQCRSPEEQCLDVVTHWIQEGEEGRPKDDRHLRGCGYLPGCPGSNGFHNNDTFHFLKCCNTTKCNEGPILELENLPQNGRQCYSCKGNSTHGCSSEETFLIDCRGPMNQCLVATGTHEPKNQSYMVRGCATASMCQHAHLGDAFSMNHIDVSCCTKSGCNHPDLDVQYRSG

Binder	gCy5 Geo Mean Pos Cells [1]	binding result [2]	Plasminogen activation inhibition (IC50, ug/ml) [3]	uPA/uPAR binding Inhibition % [4]	Kd [5]	Kd [6]	koff [6]	kon [6]	X Geo Mean [7]	binding result [8]	LA at 20 ng/ml [9]	binding result [10]	binding result [11]	LA at 80 ng/ml [12]	Human uPAR/uPA binding inhibition (%, line material) [13]	inhibition of plasminogen activation on U937 cells [14]	geo mean cold - TCEP [15]
anti-uPAR monoclonal antibody 1.113.2 (antibody, V domains shown) VH: QVQLVESGGGVVQPGRSLRLSCAASGFTFSSYGMHWVRQAPGKGLEWVAVIWYDGSNKYYADSVKGRFTISRDNSKNTLYLQMNSLRAEDTAVYYCARDLAALYYYYGMHVWGQGTTVTVSS VL: EIVMTQSPATLSVSPGERATLSCRASQSFSSNLAWYQQKPGQAPRLLIYGASTRATGIPARFSGSGSGTEFTLTISSLQSEDFAVYYCQQNNNWPRTFGQGTKVEIK	511	no binding (tested: 6.25 µg/ml)	0.775 µg/mL	75%	4.6 nM	4.6 nM	0.00013 s⁻¹	28000 M⁻¹ s⁻¹	10.2	no binding (tested: GeoMean ratio 1.95)	0.53	no binding	binds	1.8	75%		
anti-uPAR monoclonal antibody 1.4.2 (antibody, V domains shown) VH: EVQLVESGGGLVQPGGSLRLSCAASGFTFSSYDMHWVRQATGKGLEWVSAIGTAGDTYYPGSVKGRFTISRENAKNSLYLQMNSLRAGDTAVYYCAREGDYSNYFTMVRGVTYGMDVWGQGTTVTVSS VL: DIQLTQSPSSLCASVGDRITITCRASQGISKYLAWFQQKPGKAPKSLIYGASSLQSGVPAKFSGSGSGTDFTLTISSLQPEDFATYYCQQYNSYPLTFGGGTKVEIK	419	no binding (tested: 6.25 µg/ml)	0.075 µg/mL	69%	8.7 nM	8.7 nM	0.00096 s⁻¹	110000 M⁻¹ s⁻¹	12.4	no binding (tested: GeoMean ratio 1.95)	0.16	no binding	binds	0.66	69%		
anti-uPAR monoclonal antibody 4.13.1 (antibody, V domains shown, also called 4.13.2) VH: EVQLLESGGGLVQPGGSLRLSCAASGFTFSSYAMSWVRQAPGKGLEWVLGISGSGGSTYYADSVKGRFTISRDNSKNTLYLQMNSLRAEDTAVYYCAKDGYGDYVGWYFDLWGRGTLVTVSS VL: not shown	28.2	no binding (tested: 6.25 µg/ml)	0.077 µg/mL	78%	12.6 nM	12.6 nM	0.0012 s⁻¹	95000 M⁻¹ s⁻¹	11.2	no binding (tested: GeoMean ratio 1.95)	0.09	no binding		0.24	78%	> 90%	37.4

These reach a lower Kd [5]. Values come first.

gCy5 Geo Mean Pos Cells [1]	binding result [2]	Plasminogen activation inhibition (IC50, ug/ml) [3]	uPA/uPAR binding Inhibition % [4]	Kd [5]	Kd [6]	koff [6]	kon [6]	X Geo Mean [7]	binding result [8]	LA at 20 ng/ml [9]	binding result [10]	binding result [11]	LA at 80 ng/ml [12]	Human uPAR/uPA binding inhibition (%, line material) [13]	inhibition of plasminogen activation on U937 cells [14]	geo mean cold - TCEP [15]	Binder
422	no binding (tested: 6.25 µg/ml)	0.181 µg/mL	74%	3.9 nM	3.9 nM	0.00013 s⁻¹	33000 M⁻¹ s⁻¹	9.59	no binding (tested: GeoMean ratio 1.95)	0.27	no binding	binds	1.48	74%			anti-uPAR monoclonal antibody 1.41.1 (antibody, V domains shown) VH: QVQLVESGGGVVQPGRSLRLSCAAPGFTFSSYGMHWVRQAPGKGLEWVAVIWYDGSQKYYADSVKGRFTISRDNSKNTLYLQMNSLRAEDTAVYYCARGMTYYYYYGMDVWGQGTTVTVSS VL: EIVMTQSPAILSVSPGERATLSCRASQSVSSKLDWYQQKPGQAPRLLIYGASTRATGIPARFSGSGSGTEFTLTISSLQSEDFAVYYCQQYNNWPRTFGQGTKVEIK
559	no binding (tested: 6.25 µg/ml)	0.119 µg/mL	69%	2.7 nM	2.7 nM	0.00025 s⁻¹	94000 M⁻¹ s⁻¹	9.7	no binding (tested: GeoMean ratio 1.95)	0.27	no binding	binds	1.99	69%			anti-uPAR monoclonal antibody 1.61.1 (antibody, V domains shown) VH: EVQLVESGGGLVQPGGSLRLSCAASGFTFSSYDMHWVRQATGKGLEWVSAIGTAGDTYYPGSVKGRFTISRENAKNSLYLQMNSLRAGDTAVYYCAREGDYSNYFTRVRGVTYGMDVWGQGTTVTVSS VL: DIQMTQSPSSLSASVGDRVTITCRASQGISKYLAWFQQKPGKAPKSLIYGASSLQSGVPSKFSGSGSGTDFTLTISSLQPEDFATYYCQQYNSYPLTFGGGTKVEIK
451		0.328 µg/mL	70%	3.1 nM	3.1 nM	6.8e-05 s⁻¹	22000 M⁻¹ s⁻¹		no binding (tested: GeoMean ratio 1.95)	0.67	no binding		2.57	70%			anti-uPAR monoclonal antibody 3.8.3 (antibody, V domains shown) VH: EVQLVESGGGLVQPGGSLRLSCAASGFTFSSYWMSWVRQAPGKGLEWVANIKQHGSEKYYVDSVKGRFTISRDNAKNSLYLQMNSLRAEDTAVYYCAREEAYYYDNSGYYWYFDLWARGTLVTVSS VL: DIQMTQSPSSVSASIGDRVTITCRASQGISSWLAWYQQKPGKTPKLLIYAASSLQSGVPSRFSGSGSGTDFTLTISSLQPEDFATYYCQQADSFPWTFGQGTKVEIK
521	no binding (tested: 6.25 µg/ml)	0.061 µg/mL	78%	2.3 nM	2.3 nM	0.00017 s⁻¹	75000 M⁻¹ s⁻¹	9.89	no binding (tested: GeoMean ratio 1.95)	0.27	no binding	binds	2.15	78%			anti-uPAR monoclonal antibody 1.100.1 (antibody, V domains shown) VH: EVQLVESGGGLLQPGGSLRLSCAASGFTVRNNYMNWVRQAPGKGLEWVSVIYTGGSTYYADSVKGRFTISRDNSKNTLYLQMNSLRAEDTAVYYCAREGKLAGMDVWGQGTTVTVSS VL: not shown
